Reference: article PMC11929074, “An in vitro platform for the enzymatic characterization of the rhomboid protease RHBDL4” (The Journal of Biological Chemistry, 2025)
Entries after “also recorded” stand apart in the source; their conditions may differ. The star is where a group is joined. Dnp = O=[N+]([O-])c1ccc(*)c([N+](=O)[O-])c1; Mca = COc1ccc2c(CC(=O)*)cc(=O)oc2c1

Tests used:
recombinant human RHBDL4 [1] = molecular target: T1, recombinant human RHBDL4 (Homo sapiens, UniProt Q8TEB9); assay: FRET-based cleavage assay with fluorescent (IQ / KSp207) substrates; assay type: biochemical; conditions: for RHBDL4-catalyzed activity towards GlpG/PARL model substrates: in vitro cleavage assay; for kcat: average ± S.E.M.
T1 construct: The entire RHBDL4 and RHBDL4-S144A cDNAs were subcloned into the pcDNA3.1 vector; 6xHis (C, cleaved yes); made in house; host or cells: Freestyle 293-F cells (transient transfection, pcDNA3.1-HisA)
T1 sequence (Q8TEB9 1-315): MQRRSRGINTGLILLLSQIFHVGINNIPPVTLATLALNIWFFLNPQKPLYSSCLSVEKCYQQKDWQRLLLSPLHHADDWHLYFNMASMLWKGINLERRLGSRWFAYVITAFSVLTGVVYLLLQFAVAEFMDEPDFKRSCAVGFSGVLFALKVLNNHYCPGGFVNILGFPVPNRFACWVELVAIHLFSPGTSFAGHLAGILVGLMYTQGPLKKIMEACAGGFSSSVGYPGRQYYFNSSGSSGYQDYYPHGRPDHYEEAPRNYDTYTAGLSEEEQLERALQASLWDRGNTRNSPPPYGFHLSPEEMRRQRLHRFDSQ
Experimental: Figure 2 Kinetic characterization of recombinant human RHBDL4.A, schematic representation of the FRET-based cleavage assay using internally quenched (IQ) substrates. B, saturation curves of RHBDL4 using the fluorescent IQ substrates, IQ6, IQ41, and IQ46. C, pH dependence of the RHBDL4 protease activity using substrates IQ6, IQ41, and IQ46. D, salt concentration dependence of the RHBDL4 protease activity using substrates IQ6, IQ41, and IQ46. All the assays were performed in triplicate, and data points are represented by the average ± S.E.M. TEXT PRINTED IN THE PICTURE: (B) IQ 6: KM(μM) 10.73±2; Kcat(hr^-1) 7.33±0.6 | (B) IQ 41: KM(μM) 5.63±2; Kcat(hr^-1) 2.41±0.6 | (B) IQ 46: KM(μM) 7.19±1; Kcat(hr^-1) 3.62±0.8
(§1) The reaction setup in our FRET assay enabled the direct determination of Michaelis–Menten kinetic parameters Km and kcat for the cleavage of IQ6, IQ41, and IQ46 by RHBDL4. Our fluorescence reading data were converted to μM/h using the standard calibration curve for all three IQ substrates, and the correction factor for the inner filter effect was applied. We confirmed that purified RHBDL4 followed Michaelis–Menten kinetics with KmIQ6=10.73±2μΜ , KmIQ41=5.63±2μΜ , and KmIQ46=7.19±1μΜ and kcatIQ6=7.33±0.6h^−1 , kcatIQ41=2.41±0.6h^−1 , and kcatIQ46=3.62±0.08h^−1 (Figs. 2B and S2B).
Our FRET-based assay is a suitable platform for optimizing conditions that enhance RHBDL4 protease activity. To this end, we selected the optimal pH for RHBDL4 protease activity and performed FRET-based assays with IQ6, IQ41, and IQ46 at a pH range of 5 to 10. […] The optimal salt concentration for the RHBDL4 protease activity was also tested in the range of 100 to 300 mM (Fig. 2D). We conclude that with the IQ6, IQ41, and IQ46 substrates, RHBDL4 had satisfactory activity in a salt concentration range of 100 to 300 mM.
Figure 5 In vitro inhibition of RHBDL4 activity with TMED7-derived peptidyl α-ketoamides.A, schematic representation of the peptidyl-α-ketoamide inhibitor, compound 3 and 4. B, representative inhibition curve derived from measuring rates of RHBDL4 proteolysis of the fluorescent substrate IQ6 with increasing concentrations of compound 3. C, same as (B), except inhibition curve was derived from using increasing concentrations of compound 4. […] Reactions were quenched with 1 RLaemmli buffer and loaded on 12% SDS-PAGE gel. Post-transfer membranes were visualized using a fluorescence Cy3 filter and by Western blotting using an α-His antibody. E, saturation curve of RHBDL4 using fluorescent substrate, KSp207. For (B and C), all inhibitors were pre-incubated with RHBDL4 for 1 h and allowed to react with the IQ6 substrate for 2 h. […]
(§2) The enzymatic assay was performed as previously described (Arutyunova et al., 2014, ([26])). […] The FRET-based cleavage assay was conducted in a fluorescence multiwell plate reader (SynergyMx, BioTek). Upon excitation at 320 nm, the emission intensity at 400 nm was recorded for 2 h at minimal intervals under shaking conditions and plotted using the GraphPad PRISM software. The initial velocities were defined as the slopes of the curve of the generated product as a function of time. The plots of the generated product against the corresponding substrate concentration were fitted with the Michaelis–Menten equation. Catalytic parameters were extrapolated using GraphPad PRISM. […] The samples were desalted using C18 tips (Rainin), eluted in 80% acetonitrile, and dried down in a vacuum centrifuge prior to mass spectrometry analysis.
All the calculations for Km, Vmax, and Kcat for RHBDL4 and its mutants were performed using GraphPad PRISM.

[2] = test system: bacterial rhomboid protease GlpG; conditions: ref [26], [27]; cited from earlier work
[3] = test system: mammalian rhomboid protease PARL; conditions: ref [26], [27]; cited from earlier work
RHBDL4-Ax3G = assay: FRET-based cleavage of IQ6 by RHBDL4-Ax3G mutant; assay type: biochemical, human; conditions: IQ6 substrate; n = 3
Text: (§3) All mutants had robust expression on day 3 post-transfection of Freestyle 293-F cells, when cells were harvested for purification. RHBDL4 contains two motifs that are well conserved among the rhomboid superfamily, the WR motif in L1 and the Gx3G motif in TM domain 6 (Fig. S3, A and B) ([8]). Both motifs are required for RHBDL4-mediated ERAD function (Fleig et al. 2012). We predicted that both AR and Ax3G mutants would result in lower RHBDL4 activity. To that end, RHBDL4-AR and RHBDL4-Ax3G were expressed and purified using affinity Ni-NTA column followed by SEC (Fig. 3, B and C). […]
(§4) Figure 3 Dependence of conserved rhomboid motifs on RHBDL4 protease activity.A, RHBDL4 representation highlighting TM1–6 (in green), the VBM- and UIM-binding motifs (in blue), the conserved rhomboid motifs (WR and Gx3G), and the serine-histidine catalytic dyad (in pink). […] D, activity profiles of the WT RHBDL4 and mutant RHBDL4-S144A, RHBDL4-AR, and RHBDL4-Ax3G proteins, as measured by cleavage of the fluorescent substrate IQ6. […]
(§5) The enzymatic assay was performed as previously described (Arutyunova et al., 2014, ([26])). […] The FRET-based cleavage assay was conducted in a fluorescence multiwell plate reader (SynergyMx, BioTek). Upon excitation at 320 nm, the emission intensity at 400 nm was recorded for 2 h at minimal intervals under shaking conditions and plotted using the GraphPad PRISM software. […]

RHBDL4-AR = assay: FRET-based cleavage of IQ6 by RHBDL4-AR mutant (WR motif); assay type: biochemical, human; conditions: IQ6 substrate; n = 3
Text: as §3, §4, §5

RHBDL4-S144A = assay: FRET-based cleavage by inactive RHBDL4-S144A; assay type: biochemical, human; conditions: pH 8, 37 °C
Text: as §1
Figure 3 Dependence of conserved rhomboid motifs on RHBDL4 protease activity.A, RHBDL4 representation highlighting TM1–6 (in green), the VBM- and UIM-binding motifs (in blue), the conserved rhomboid motifs (WR and Gx3G), and the serine-histidine catalytic dyad (in pink). The table indicates the RHBDL4 region, the conserved rhomboid motifs, and amino acid mutation. The RHBDL4 proteolytic activity. B, size-exclusion chromatography profile of RHBDL4-AR and RHBDL4-Ax3G, being eluted as a monomeric protein. C, coomassie staining and Western blotting using an α-His antibody of concentrated purified RHBDL4-AR and RHBDL4-Ax3G. D, activity profiles of the WT RHBDL4 and mutant RHBDL4-S144A, RHBDL4-AR, and RHBDL4-Ax3G proteins, as measured by cleavage of the fluorescent substrate IQ6. Assay was performed in triplicate (n = 3), and data points are represented by the average ± S.E.M. Statistically significant differences compared to WT RHBDL4 are indicated (pairwise Dunnett's test followed by Bonferroni's post hoc analysis; ∗p < 0.05, n.s., no significance).
as §5

recombinant human RHBDL4 [4] = molecular target: T1, recombinant human RHBDL4; assay: Mass spectrometry identification of cleavage sites in IQ6; assay type: biochemical; conditions: 1.5 μM RHBDL4, 10 μM IQ6, 4 h, room temperature, quenched with 8 M GuHCl; MS/MS
Experimental: as §2
Supplemental Information 4. […] (B) Depiction of IQ6 cleavage sites as determined from tandem mass spectrometry (MS/MS). (C) Peptide sequence of GlpG-derived and PARL-derived fluorescent substrates IQ4 and IQ15, respectively. (D) Activity profiles of the wild-type RHBDL4 and mutant RHBDL4-S144A, as measured by cleavage of the fluorescent substrates IQ4 and IQ15. Assays was performed in triplicate, and data points are represented by the average ± S.E.M.

mca-RPKPYAvWMK(dnp) [IQ4, GlpG model substrate mca-RPKPYAvWMK(dnp)]
RHBDL4-catalyzed activity towards GlpG/PARL model substrates (recombinant human RHBDL4 [1]; triplicate): did not observe any RHBDL4-catalyzed activity | cleavage by GlpG [2]: cleave

mca-AVFLSAVAG(dnp) [IQ15, PGAM-derived PARL model substrate mca-…(dnp)]
cleavage by PARL [3]: cleave | RHBDL4-catalyzed activity towards GlpG/PARL model substrates (recombinant human RHBDL4 [1]; triplicate): did not observe any RHBDL4-catalyzed activity

Mca-Arg-Pro-Pro-Gly-Phe-Ser-Ala-Phe-Lys (DNP)-OH (Mca-RPPGFSAFK(Dnp)-OH; SMILES COc1ccc2c(CC(=O)N[C@@H](CCCNC(=N)N)C(=O)N3CCC[C@H]3C(=O)N3CCC[C@H]3C(=O)NCC(=O)N[C@@H](Cc3ccccc3)C(=O)N[C@@H](CO)C(=O)N[C@@H](C)C(=O)N[C@@H](Cc3ccccc3)C(=O)N[C@@H](CCCCNc3ccc([N+](=O)[O-])cc3[N+](=O)[O-])C(=O)O)cc(=O)oc2c1) [IQ6, fluorescent internally quenched substrate mca-…(dnp)]
kcat (recombinant human RHBDL4 [1]; 37 °C, pH 8.0, triplicate): 0.00204 ± 0.00017 s⁻¹ | cleavage rate/efficiency relative to other substrates (recombinant human RHBDL4 [1]; FRET-based assay): exhibited the highest cleavage rate for RHBDL4 proteolysis; also recorded: maximum activity | faster kinetics in comparison to IQ41 (recombinant human RHBDL4 [1]; IQ6 versus IQ41): three-fold | faster kinetics in comparison to IQ46 (recombinant human RHBDL4 [1]; IQ6 versus IQ46): two-fold | kcat (recombinant human RHBDL4 [1]; Michaelis-Menten, 1.5 μM RHBDL4, 37 °C, 2 h, pH 8.0, 150 mM NaCl, 0.1% DDM, triplicate): 0.00204 ± 0.00017 s⁻¹ | catalytic rate (cleavage rate) (recombinant human RHBDL4 [1]; approximate, discussion): approximately 7 /h | pH of highest RHBDL4 protease activity (recombinant human RHBDL4 [1]; pH range 5 to 10, triplicate): 8 | salt concentration range with satisfactory activity (recombinant human RHBDL4 [1]; salt tested 100 to 300 mM, triplicate): 100 to 300 mM | enzymatic cleavage activity compared with WT RHBDL4 (RHBDL4-Ax3G): retained enzymatic cleavage activity at levels comparable to WT RHBDL4 | decrease in activity compared with WT RHBDL4 (RHBDL4-AR): ~6 fold | cleavage by inactive RHBDL4-S144A (increase in fluorescence / activity) (RHBDL4-S144A): negligible increase in fluorescence; also recorded: negligible activity | N-terminal cleavage products (recombinant human RHBDL4 [4]): mca-RPPGFSA and mca-RPPGFS
